Data reported in US20210363269A1 (ALX ONCOLOGY, published 2021).
Residue numbers refer to the chain shown, from its start. Names and notes keep the numbering of the source.

T1: NOD mouse SIRP-α D1 domain (mouse (NOD strain))
T1 chain: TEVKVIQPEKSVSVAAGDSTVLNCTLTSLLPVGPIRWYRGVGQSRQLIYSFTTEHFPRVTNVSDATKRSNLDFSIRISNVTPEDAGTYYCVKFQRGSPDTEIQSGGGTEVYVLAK

T2: C57BL/6 mouse SIRP-α D1 domain (mouse (C57BL/6 strain), UniProt P97797 32-148)
T2 sequence: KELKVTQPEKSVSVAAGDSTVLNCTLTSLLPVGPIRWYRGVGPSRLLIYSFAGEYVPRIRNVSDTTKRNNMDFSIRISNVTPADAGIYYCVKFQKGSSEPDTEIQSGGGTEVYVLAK

T3: BALB/c mouse SIRP-α D1 domain (mouse (BALB/c strain))
T3 chain: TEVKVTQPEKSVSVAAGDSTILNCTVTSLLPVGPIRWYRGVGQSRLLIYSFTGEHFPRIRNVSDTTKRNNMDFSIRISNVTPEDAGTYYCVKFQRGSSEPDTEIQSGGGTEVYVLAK

T4: BL6 mouse SIRP-α (mouse (C57BL/6 strain), UniProt P97797 32-148)
T4 construct: also called C57BL/6
T4 sequence: T2 sequence

T5: cynomolgus SIRP-α (cynomolgus monkey, UniProt Q5TFQ8 30-148 (human entry), limits assumed)
T5 construct: also called cyno1
T5 chain: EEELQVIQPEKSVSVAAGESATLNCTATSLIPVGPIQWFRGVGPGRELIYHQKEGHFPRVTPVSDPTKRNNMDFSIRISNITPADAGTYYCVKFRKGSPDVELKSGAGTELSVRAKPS

T6: BALBc mouse SIRP-α (mouse (BALB/c strain))
T6 chain: T3 chain

T7: NOD mouse SIRP-α (mouse (NOD strain))
T7 chain: T1 chain

B1: antibody 136 variant Mut/mut (antibody, human IgG1, V domains shown)
VH: EVQLVESGGGVVQPGRSLRLSCAASGFTFSSYDVNWVRQAPGKGLEWVSLISGSGEIIYYADSVKGRFTISRDNSKNTLYLQMNSLRAEDTAVYYCAKENNRYRFFDDWGQGTLVTVSS
VL: EIVLTQSPGTLSLSPGERATLSCRASQSVYTYLAWYQQKPGQAPRLLIYGASSRATGIPDRFSGSGSGTEFTLTISSLQSEDFAVYYCQQYYDRPPLTFGGGTKVEIK
notes: Human IgG1 with L234A/L235A/G237A/N297A; Labels are light chain/heavy chain
B2: antibody 136 variant MutRv_I2T/mut (antibody, human IgG1, V domains shown)
VH: B1 VH
VL: B1 VL with I2T
notes: as for B1
B3: antibody 136 variant, light chain Mut_I2T / heavy chain Mut_V34M (antibody, V domains shown)
VH: B1 VH with V34M
VL: B1 VL with I2T
B4: antibody 136 variant MutRv_Q38E/mut (antibody, human IgG1, V domains shown)
VH: B1 VH
VL: B1 VL with Q38E
notes: as for B1
B5: antibody 136 variant MutRv_S12T/mut (antibody, human IgG1, V domains shown)
VH: B1 VH
VL: B1 VL with S12T
notes: as for B1
B6: antibody 136 variant MutRv_S22T/mut (antibody, human IgG1, V domains shown)
VH: B1 VH
VL: B1 VL with S22T
notes: as for B1
B7: Hum8/AB21_HC_Mutall (antibody, V domains shown)
VH: EVQLVESGGGVVQPGGSLRLSCAASGFTFSSNAMSWVRQAPGKGLEWVAGISAGGSDTYYPASVKGRFTISRDNSKNTLYLQMNSLRAEDTAVYYCARETWNHLFDYWGQGTLVTVSS
VL: SYELTQPPSVSVSPGQTARITCSGGAYSSYYYAWYQQKPGQAPVLVIYSDSKRPSGIPERFSGSSSGTTVTLTISGVQAEDEADYYCGGYDQSSYTNPFGGGTKLTVL
notes: also called Hum8/AB21mutall
B8: Hum1/AB25_HC_Mutall (antibody, V domains shown)
VH: EVQLVESGGGVVQPGGSLRLSCAASGFTFSSNAMSWVRQAPGKGLEWVAGISSGSDTYYGDSVKGRFTISRDNSKNTLYLQMNSLTAEDTAVYYCARETWNHLFDYWGQGTLVTVSS
VL: B7 VL with A26S, L45T, V46L, S51D, G56N
B9: Hum8/AB25_HC_Mutall (antibody, V domains shown)
VH: B8 VH
VL: B7 VL
B10: Hum1/AB27_HC_Mutall (antibody, V domains shown)
VH: B8 VH with T28R, N32Y, A49S, S55G, G60V, T86R
VL: B7 VL with A26S, L45T, V46L, S51D, G56N
B11: Hum9/AB25_HC_Mutall (antibody, V domains shown)
VH: B8 VH
VL: B7 VL with S51D
B12: antibody 135 variant, light chain Mut / heavy chain Mut (antibody, V domains shown)
VH: EVQLVESGGGVVQPGGSLRLSCAASGFSFSIYAVSWVRQAPGKGLEWVSTIGADDTYYADSVKGRFTISRDNSKNTLYLQMNSLRAEDTAVYYCAKDSTVGWSGDFFDYWGQGTLVTVSS
VL: EIVLTQSPATLSVSPGERVTLSCRASQNVRSDIAWYQQKPGQAPRLLIYAASSRDTGIPARFSGSGSGTDFTLTISSLQSEDFGVYYCQQYYDWPPFTFGGGTKVEIK

Columns and labels:
[1] = target: T1, NOD mouse SIRP-α D1 domain; assay: SPR, antibody immobilised on GLC chip
Protocol: (§1) All experiments were performed at 25° C. using a SPR-based ProteOn XPR36 biosensor (BioRad, Inc, Hercules, Calif.) equipped with GLC or NLC sensor chips. […] Purification was carried out by standard Protein A affinity column chromatography and eluted antibodies were stored in PBS buffer.
(§2) For the method using GLC chip, the analytes were injected and flowed over anti-SIRPα antibodies immobilized (˜1000 RUs) on GLC chips using Proteon™ Amine Coupling Kit. For the immobilization step, GLC chip was activated with EDAC/Sulpho-NHS 1:1 (Biorad) diluted 1/100 for 300 s at 25 μL/min. Anti-SIRPα antibodies were diluted to 80 nM concentration in 10 mM sodium acetate buffer pH 4.5 and immobilized to the chip at 30 μL/min for 50 s. Chip was inactivated with ethanolamine for 300 s at 25 μL/min. The analytes (e.g., SIRP-α from different species, SIRP-β, SIRP-γ) were injected in a “one-shot” kinetic mode at nominal concentrations of 100, 33, 11, 3.7, 1.2 and 0 nM. Association times were monitored for 90 s at 100 μL/min, and dissociation times were monitored for 1200 s. The surfaces were regenerated with a 2:1 v/v blend of Pierce IgG elution buffer/4M NaCl. […]

[2] = target: T8, human SIRPγ isoform 1 (human, UniProt Q9P1W8 29-147); assay: SPR, antibody immobilised on GLC chip
T8 construct: also called sirpg; sirp-g
Protocol: as §1, §2
T8 sequence (Q9P1W8 29-147 limits assumed): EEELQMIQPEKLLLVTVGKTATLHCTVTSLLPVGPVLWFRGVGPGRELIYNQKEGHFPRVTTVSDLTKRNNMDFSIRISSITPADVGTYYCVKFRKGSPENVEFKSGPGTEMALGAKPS

[3] = target: T2, C57BL/6 mouse SIRP-α D1 domain; assay: SPR, antibody immobilised on GLC chip
Protocol: as §1, §2

[4] = target: T9, human SIRP-α v2 D1 domain (human); assay: SPR, antibody immobilised on GLC chip
T9 construct: also called human v2; human α v2
Protocol: as §1, §2

[5] = target: T3, BALB/c mouse SIRP-α D1 domain; assay: SPR, antibody immobilised on GLC chip
Protocol: as §1, §2

[6] = target: T10, human SIRP-α v1 D1 domain (human, UniProt P78324 31-149); assay: SPR, antibody immobilised on GLC chip
T10 construct: also called human v1; human α v1
Protocol: as §1, §2

[7] = target: T4, BL6 mouse SIRP-α; assay: SPR, antibody on GLC chip
How it was run: (§3)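 Antibodies purified with Protein A were amine-coupled (~1000 RU) to a ProteOn XPR36 GLC chip, and SIRP analytes were injected one-shot at 100, 33, 11, 3.7, 1.2 and 0 nM in PBS pH 7.4 with 0.01% Tween-20 at 25° C. Each run used 90 s association at 100 μL/min followed by 1200 s dissociation. KD was derived as kd/ka from a global Langmuir fit to double-referenced sensorgrams.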

[8] = target: T5, cynomolgus SIRP-α; assay: SPR, antibody on GLC chip
How it was run: as §3

[9] = target: T11, human SIRP-α v1 (human, UniProt P78324 31-149); assay: SPR, antibody on GLC chip
T11 construct: also called Human v1; Human V1
How it was run: as §3

[10] = target: T6, BALBc mouse SIRP-α; assay: SPR, antibody on GLC chip
How it was run: as §3

[11] = target: T12, human SIRP-α v2 (human); assay: SPR, antibody on GLC chip
T12 construct: also called Human v2; Human V2
How it was run: as §3

[12] = target: T13, human SIRPβ isoform 1 (human, UniProt O00241 30-148); assay: SPR, antibody on GLC chip
T13 construct: also called Beta; Human SIRPb
How it was run: as §3

[13] = target: T14, human SIRPγ isoform 1 (human, UniProt Q9P1W8 29-147); assay: SPR, antibody on GLC chip
T14 construct: also called Gamma; Human SIRPg
How it was run: as §3
T14 sequence (Q9P1W8 29-147 limits assumed): as above

[14] = target: T7, NOD mouse SIRP-α; assay: SPR, antibody on GLC chip
How it was run: as §3

[15] = target: T11, human SIRP-α v1; assay: SPR
How it was run: (§4)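 SIRP analytes at nominal, A280-based concentrations were injected in one-shot kinetic mode over purified antibodies that were amine-coupled to a GLC chip or captured by biotinylated Protein A on an NLC chip of a ProteOn XPR36. All runs were at 25° C in PBS pH 7.4 with 0.01% Tween-20. Apparent ka and kd came from a global simple Langmuir fit of double-referenced data, with KD as their ratio kd/ka.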

[16] = target: T6, BALBc mouse SIRP-α; assay: SPR
How it was run: as §4

[17] = target: T7, NOD mouse SIRP-α; assay: SPR
How it was run: as §4

[18] = target: T4, BL6 mouse SIRP-α; assay: SPR
How it was run: as §4

T11 sequence (P78324 31-149 limits assumed): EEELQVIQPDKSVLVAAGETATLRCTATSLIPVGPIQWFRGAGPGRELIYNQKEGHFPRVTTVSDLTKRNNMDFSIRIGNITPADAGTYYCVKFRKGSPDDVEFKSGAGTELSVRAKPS
T10 sequence (P78324 31-149 limits assumed): as above
T9 sequence (chain, as listed by the source limits assumed): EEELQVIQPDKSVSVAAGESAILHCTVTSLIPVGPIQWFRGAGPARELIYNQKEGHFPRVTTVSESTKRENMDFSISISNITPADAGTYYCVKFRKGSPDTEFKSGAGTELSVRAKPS
T13 sequence (O00241 30-148 limits assumed): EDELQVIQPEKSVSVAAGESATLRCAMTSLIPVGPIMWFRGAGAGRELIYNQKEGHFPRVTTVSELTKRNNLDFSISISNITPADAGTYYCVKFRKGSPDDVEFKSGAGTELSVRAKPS
T12 sequence (chain, as listed by the source limits assumed): as the sequence (chain, as listed by the source limits assumed) above

Binder	Kd [1] [nM]	Kd [2] [nM]	Kd [3] [nM]	Kd [4] [nM]	Kd [5] [nM]	Kd [6] [nM]	Kd [15] [nM]	Kd [16] [nM]	Kd [17] [nM]	Kd [18] [nM]	other results
B1	5.42	28.8	21.6	12.7	2.67	7.32	–	–	–	–	–
B2	0.68	40	15.3	1.86	0.422	0.717	–	–	–	–	–
B3	–	–	–	–	–	–	–	–	–	–	Kd [7]: 13.8 nM; Kd [8]: 2.11 nM; Kd [9]: 0.551 nM; Kd [10]: 0.361 nM; Kd [11]: 1.74 nM; Kd [12]: 2.22 nM; Kd [13]: 33.5 nM; Kd [14]: 0.596 nM
B4	5.98	19.3	33.1	12.5	2.98	6.18	–	–	–	–	–
B5	2.85	66.7	16.3	10.5	2.09	4.88	–	–	–	–	–
B6	2.44	61.7	13.3	8.28	1.64	4.99	–	–	–	–	–
B7	–	–	–	–	–	–	0.0201	71.2	27.8	–	–
B8	–	–	–	–	–	–	0.00519	7.25	4.83	10.3	–
B9	–	–	–	–	–	–	0.0262	59.9	20.5	497000	–
B10	–	–	–	–	–	–	0.00437	5.77	2.92	9.03	–
B11	–	–	–	–	–	–	0.0129	38.3	61.2	11.5	–
B12	–	–	–	–	–	–	–	–	–	–	binding result [7]: no binding; Kd [8]: 0.127 nM; Kd [9]: 0.192 nM; binding result [10]: no binding; Kd [11]: 0.0175 nM; Kd [12]: 0.188 nM; Kd [13]: 0.733 nM; binding result [14]: no binding
